For test [1], the target named is Origin Recognition Complex (ORC). In words: pre-RC assembly on DNA beads, silver-stained gel band quantification. As to conditions: ATP, low salt wash; read off a plot.
Test [2] deals with Origin Recognition Complex (ORC) (UniProt P54784). The test is described as follows: pull-down; pre-RC assay as a2 but with 3 mM ATP, WT Cdc6, low salt wash.

In the case of “MCM2-7 (wild type) mutant Mcm5:E710R; Mcm5:E717R; Mcm5:E736R [S. cerevisiae] / Origin Recognition Complex (ORC) [not stated] chain 4 E710R, chain 4 E717R, chain 4 E736R”, the response in test [1] came to 0.5. Take “MCM2-7-ΔC2, P29469 1-847; P24279 1-971; P30665 1-933; P29496 1-775; P53091 1-1017; P38132 1-845”: the complex formation compared to WT in test [2] was 65%. Turning to “MCM2-7 (wild type) mutant Mcm5:K757D; Mcm5:R764E; Mcm5:R772E [S. cerevisiae] / Origin Recognition Complex (ORC) [not stated] chain 4 K757D, chain 4 R764E, chain 4 R772E”, the response in test [1] came to 0.25. On the same count and under the same terms, for “MCM2-7 (wild type) mutant Mcm5:R721E; Mcm5:R735E [S. cerevisiae] / Origin Recognition Complex (ORC) [not stated] chain 4 R721E, chain 4 R735E” the value was 0.28.

These data come from publication PMC11695723.
